How the values were obtained:
[1] = target: human vascular endothelial growth factor 165 (hVEGF), E. coli-derived, after tag cleavage (human); assay: SEC; SEC-HPLC, Protein-pak 300SW SEC 7.5 x 300 mm column, 1X PBS pH 7.4, room temperature, 1 mL/min, detection at 280 nm; peaks checked on non-reducing SDS-PAGE
[2] = target: human vascular endothelial growth factor 165 (hVEGF), E. coli-derived, after tag cleavage (human); assay: non-reducing SDS-PAGE; purified hVEGF in sample buffer with SDS, without DTT (non-reducing) against with 100 mM DTT (reducing), tricine SDS-PAGE, Coomassie stain; shows disulfide-linked forms

stoichiometry N [1]: 2
stoichiometry N [2]: 2
Substance: human vascular endothelial growth factor 165 (hVEGF), E. coli-derived, after tag cleavage (ligand)
